These results are taken from article PMC4742278, “BS69/ZMYND11 C-Terminal Domains Bind and Inhibit EBNA2” (PLoS Pathogens, 2016).

Bounds are passed on as bounds.

The target in experiment [1] is EBNA2 fragment residues 381–445 (EBNA2_(381–445)) (Epstein-Barr virus, strain B95-8) (UniProt P12978). In words: ITC. A general note: In ITC the heat of successive injections is recorded.
Experiment [2] addresses BS69 MYND domain (BS69_(MYND), residues 516–562) (mouse). The experiment in a line: ITC; peptide (~1 mM) titrated into BS69_(MYND) or BS69_(CC-MYND) (~0.1 mM) at 5°C; 20 mM Tris-HCl pH 7.5, 100 mM NaCl, 2 mM DTT; one-site fitting model.
The target in experiment [3] is BS69_(MYND) Y532A (mouse). The description is as above.
Experiment [4] deals with BS69_(MYND) R560A (mouse). Described as above.
Experiment [5] addresses BS69/ZMYND11 coiled-coil-MYND tandem domains (BS69_(CC-MYND), residues 440–562) (mouse). The description is as above.
In experiment [6] the target is flag-tagged BS69_(CC-MYND) Q546A/W550A (mouse). In words: co-IP.
Experiment [7] has as its target flag-tagged BS69_(CC-MYND) Q546A (mouse). In words: co-IP.
The target in experiment [8] is EBNA2 PXLXP2 mutant (Epstein-Barr virus, strain W91) (UniProt P12978).
Experiment [9] addresses Epstein-Barr virus nuclear antigen 2 (EBNA2), expressed from a plasmid (Epstein-Barr virus, strain W91) (UniProt P12978).

A word on the Kd: it is a measure of binding affinity in units of concentration. Higher therefore signals weaker binding. “BS69/ZMYND11 coiled-coil-MYND tandem domains (BS69_(CC-MYND), residues 440–562) (domain or fragment)” had a Kd in experiment [1] of 0.24 µM. That is a sub-micromolar value.
With “EBNA2_(381–389) peptide with an additional Gly-Tyr dipeptide at the C-terminus (NH2-[…]-CONH2)”, the Kd in [2] was 25.6 µM; in experiment [5], 7.4 µM. In addition, the fold decrease of binding against wild-type BS69 (MYND) in experiment [3] was 3 fold; in experiment [4], 10 fold.
Regarding “Epstein-Barr virus nuclear antigen 2 (EBNA2), expressed from a plasmid (from UniProt P12978 1-487) (natural protein)”, the figures for the percent reduction of EBNA2 binding against wild type in experiment [6] and in [7] were 85% and 50%, respectively.
“flag-tagged wild-type BS69_(CC-MYND) (domain or fragment)” had a BS69 inhibition of the LMP1-Luc reporter activated by the EBNA2 PXLXP2 mutant in experiment [8] of 50%. The EBNA2 activation of the LMP1-Luc or Cp-Luc reporter in BJAB cells in the presence of wild-type BS69 (CC-MYND) (around 10-fold without BS69) in experiment [9] was less than 2 fold.
